Measurements reported in paper PMC9363410.

Tests used:
[1] = target: OsOTUB1-cat (OsOTUB1 residues 74 to 324, catalytic domain) (Oryza sativa)
[2] = target: OsOTUB1-cat (OsOTUB1 residues 74 to 324, catalytic domain) (Oryza sativa); experiment: cross-linking; 20 µM DUB with 100 µM Ub-PA in gel filtration buffer (50 mM Tris-HCl pH 8, 150 mM NaCl, 2 mM DTT), 37 °C, samples at time points, SDS-PAGE, Coomassie

Substance: Met1-diUb Q2H^prox (from UniProt P0CG48 1-76) (natural protein)
- KM of OsOTUB1-cat for the variant, fold reduction of affinity against Met1-diUb WT (Michaelis-Menten kinetics by HPLC, two replicates) [1]: 1.45 to 1.58 fold

Substance: Met1-diUb Q2A^prox (from UniProt P0CG48 1-76) (natural protein)
- KM of OsOTUB1-cat for the variant, fold reduction of affinity against Met1-diUb WT (Michaelis-Menten kinetics by HPLC, two replicates) [1]: 3.65 to 4.3 fold

Substance: Met1-diUb Q2E^prox (from UniProt P0CG48 1-76) (natural protein)
- KM of OsOTUB1-cat for the variant, fold reduction of affinity against Met1-diUb WT (Michaelis-Menten kinetics by HPLC, two replicates) [1]: 4.2 to 6.23 fold

Substance: Met1-diUb Q2N^prox (from UniProt P0CG48 1-76) (natural protein)
- KM of OsOTUB1-cat for the variant, fold reduction of affinity against Met1-diUb WT (Michaelis-Menten kinetics by HPLC, two replicates) [1]: 1.52 to 1.91 fold

Substance: C-terminally propargylated Ub (Ub-PA)
- percent of Ub-PA crosslinked in 1 min [2]: > 90%
